For orientation: Kd means the constant that tells how readily two partners part at equilibrium. The term koff denotes a measure of how fast the partners let go of each other. The kon is a measure of how fast the partners come together. In general, EC50 refers to the concentration needed to bring the measured effect to its halfway point. A lower EC50 goes with higher potency in that assay.

Positions count from the first letter of the chain named. Numbers in names are those of the source. Where “and” joins values, the source holds several entries; their conditions need not be identical. Equal values may be shown once. Read-outs that look alike come from different tables or passages of the source.

From patent publication US20220119534A1 (DRAGONFLY THERAPEUTICS, published 2022) come the findings set out here.

The target in assay [1] is T1, Human CLEC12A-His (human, UniProt Q5QGZ9 65-265).
T1 construct: Recombinant soluble protein made in house (Dragonfly Tx); The hCLEC12A spot of the HuProt array is written under this molecule as well; also called hCLEC12A-His; hCLEC12A; not shown: His tag
T1 sequence: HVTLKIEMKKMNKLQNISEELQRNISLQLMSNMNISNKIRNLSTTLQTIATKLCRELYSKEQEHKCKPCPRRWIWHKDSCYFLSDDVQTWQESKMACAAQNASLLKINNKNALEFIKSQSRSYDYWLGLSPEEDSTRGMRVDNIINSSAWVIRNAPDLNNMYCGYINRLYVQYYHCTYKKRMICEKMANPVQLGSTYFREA
The experiment in a line: SPR Biacore 8K 37 C; TriNKET captured on anti-hFc chip, hCLEC12A-His as analyte; 1:1 fit; control sample, n=2. On the technique in general: In SPR one partner is held on a chip, and binding of the other changes the refractive index at the surface.

The target of assay [2] is T2, Human CD16a V158 (FcγRIIIa V158) (human, UniProt P08637 17-208, biotinylated (site not stated)).
T2 construct: V158 is the allele name in mature numbering; also called hCD16aV; hCD16a V158
T2 sequence (P08637 17-208 F176V limits assumed): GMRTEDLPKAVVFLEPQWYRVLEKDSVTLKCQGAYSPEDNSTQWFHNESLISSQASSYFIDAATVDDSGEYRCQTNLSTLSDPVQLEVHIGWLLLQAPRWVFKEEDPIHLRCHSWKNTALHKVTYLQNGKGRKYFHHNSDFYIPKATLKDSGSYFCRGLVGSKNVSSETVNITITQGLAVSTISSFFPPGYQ
The experiment in a line: SPR; biotinylated CD16a V158 captured on SA chip, TriNKET as analyte; 1:1 kinetic fit; after 4 wks 40 C in HST pH 6.0, n=3.

In assay [3] the target is T1, Human CLEC12A-His. The experiment in a line: cell-based or functional assay.
Assay [4] addresses T3, Human CLEC12A-His (human, UniProt Q5QGZ9 65-265).
T3 construct: Recombinant soluble protein made in house; also called hCLEC12A-His; hCLEC12A; not shown: His tag
T3 sequence: T1 sequence
The experiment in a line: SPR, 37 C, AB0192 captured, hCLEC12A-His analyte; average of 3 replicates.

Assay [5] deals with T4, Cynomolgus CD64 (cynomolgus monkey, UniProt A0A2K5U901 33-309, Probably biotinylated for capture, as in the sister examples (p-1094).).
T4 construct: Bought recombinant receptor; also called cFcγRI; Cynomolgus CD64 (FcγRI); not shown: The vendor's biotinylation and purification tag
T4 sequence (A0A2K5U901 entry or part of it limits assumed): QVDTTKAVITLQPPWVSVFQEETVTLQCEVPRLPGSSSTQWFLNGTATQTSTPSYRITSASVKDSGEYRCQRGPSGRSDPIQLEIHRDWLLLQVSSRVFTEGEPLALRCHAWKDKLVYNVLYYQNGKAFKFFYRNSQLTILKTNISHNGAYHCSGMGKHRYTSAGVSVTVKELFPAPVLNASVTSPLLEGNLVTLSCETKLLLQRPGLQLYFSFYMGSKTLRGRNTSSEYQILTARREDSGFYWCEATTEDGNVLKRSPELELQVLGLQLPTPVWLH
In words: SPR, cynomolgus CD64 captured.

Assay [6] deals with T5, Human CD16a V158 (human, UniProt P08637 17-208, biotinylated).
T5 construct: Bought recombinant receptor; also called hCD16a (V158); hFcγRIIIa V158
T5 sequence (P08637 17-208 F176V limits assumed): as the sequence (P08637 17-208 F176V limits assumed) above
In words: SPR, hCD16a V158 captured, kinetic fit; average for AB0192.

In assay [7] the target is T6, human CLEC12A on cells (HL60, PL21, Ba/F3-hCLEC12A) (human, UniProt Q5QGZ9 1-265).
T6 construct: Endogenous on the AML lines HL60 and PL21; brought into mouse Ba/F3 cells by retroviral transduction; The cell line stands under assay; also called CLL-1
T6 sequence: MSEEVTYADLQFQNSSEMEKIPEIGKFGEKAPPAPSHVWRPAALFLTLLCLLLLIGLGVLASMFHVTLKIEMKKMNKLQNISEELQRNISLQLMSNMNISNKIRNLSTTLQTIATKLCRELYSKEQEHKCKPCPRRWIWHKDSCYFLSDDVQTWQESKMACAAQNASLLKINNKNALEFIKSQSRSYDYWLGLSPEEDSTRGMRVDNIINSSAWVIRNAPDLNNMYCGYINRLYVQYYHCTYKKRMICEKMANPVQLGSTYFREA
The experiment in a line: flow cytometry, 40 nM, MFI after 2 h 37 C relative to 2 h on ice, HL60 cells. Background: A flow cytometer gives signals particle by particle.

The target in assay [8] is T7, Human CLEC12A-His (recombinant, K244 WT) (human, UniProt Q5QGZ9 65-265).
T7 construct: Made in house (Dragonfly Tx); also called hCLEC12A; hCLEC12A-His; not shown: His tag
T7 sequence: T1 sequence
In words: SPR, two-state fit (ka1); control sample.

Assay [9] addresses T7, Human CLEC12A-His (recombinant, K244 WT). In words: SPR, two-state fit; after forced oxidation.
For assay [10], the target named is T8, Human CLEC12A expressed on cells (Ba/F3-hCLEC12A, PL21, HL60) (human, UniProt Q5QGZ9 1-265).
T8 construct: Ba/F3 cells transduced with human CLEC12A; PL21 and HL60 AML lines express it endogenously; also called cell surface expressed CLEC12A
T8 sequence: T6 sequence
The experiment in a line: flow cytometry on Ba/F3-hCLEC12A cells.

In assay [11] the target is T7, Human CLEC12A-His (recombinant, K244 WT). In words: SPR 37C, AB0089 captured on anti-hFc, two-state fit.
Assay [12] has the same target. In words: SPR, two-state fit (ka1); control sample. The source holds these as a separate data set.
Assay [13] shares this target. The experiment in a line: SPR, two-state fit (kd1); after 4 wks 40C in CST pH 7.0.
The target in assay [14] is T9, recombinant human CLEC12A-His (human, UniProt Q5QGZ9 65-265).
T9 construct: also called hCLEC12A-His; hCLEC12A
T9 sequence: T1 sequence
In words: SPR 37C, average.

Assay [15] has as its target T10, human CLEC12A expressed on cells (human, UniProt Q5QGZ9 1-265).
T10 construct: Transduced isogenic cells or endogenous expression on AML cells; also called RMA-hCLEC12A; Ba/F3-hCLEC12A
T10 sequence: T6 sequence
In words: flow cytometry, HL-60.

Assay [16] addresses T10, human CLEC12A expressed on cells. The experiment in a line: flow cytometry, HL60.
The target is the same in assay [17]. The experiment in a line: flow cytometry (gMFI) on CLEC12A+ PL-21 AML cells.

B1: F3'-1602 TriNKET (bispecific antibody, human IgG1, kappa)
chain: QLQLQESGPGLVKPSETLSLTCTVSGFSLTNYGLHWIRQPPGKCLEWIGVIWSGGKTDYNPSLKSRVTISKDTSKNQFSLKLSSVQAADTAVYYCAKYDYDDSLDYWGQGTLVTVSSGGGGSGGGGSGGGGSGGGGSDIQMTQSPSSLSASVGDRVTITCHASQNINFWLSWYQQKPGKAPKLLIYEASNLHTGVPSRFSGSGSGTRFTLTISSLQPEDIATYYCQQSHSYPLTFGCGTKLEIKGSDKTHTCPPCPAPELLGGPSVFLFPPKPKDTLMISRTPEVTCVVVDVSHEDPEVKFNWYVDGVEVHNAKTKPREEQYNSTYRVVSVLTVLHQDWLNGKEYKCKVSNKALPAPIEKTISKAKGQPREPRVYTLPPCRDELTKNQVSLTCLVKGFYPSDIAVEWESNGQPENNYKTTPPVLVSDGSFTLYSKLTVDKSRWQQGNVFSCSVMHEALHNHYTQKSLSLSPG
heavy: EVQLVESGGGLVKPGGSLRLSCAASGFTFSSYSMNWVRQAPGKGLEWVSSISSSSSYIYYADSVKGRFTISRDNAKNSLYLQMNSLRAEDTAVYYCARGAPIGAAAGWFDPWGQGTLVTVSSASTKGPSVFPLAPSSKSTSGGTAALGCLVKDYFPEPVTVSWNSGALTSGVHTFPAVLQSSGLYSLSSVVTVPSSSLGTQTYICNVNHKPSNTKVDKKVEPKSCDKTHTCPPCPAPELLGGPSVFLFPPKPKDTLMISRTPEVTCVVVDVSHEDPEVKFNWYVDGVEVHNAKTKPREEQYNSTYRVVSVLTVLHQDWLNGKEYKCKVSNKALPAPIEKTISKAKGQPREPQVCTLPPSRDELTENQVSLTCLVKGFYPSDIAVEWESNGQPENNYKTTPPVLDSDGSFFLYSWLTVDKSRWQQGNVFSCSVMHEALHNHYTQKSLSLSPG
light: DIQMTQSPSSVSASVGDRVTITCRASQGISSWLAWYQQKPGKAPKLLIYAASSLQSGVPSRFSGSGSGTDFTLTISSLQPEDFATYYCQQGVSFPRTFGGGTKVEIKRTVAAPSVFIFPPSDEQLKSGTASVVCLLNNFYPREAKVQWKVDNALQSGNSQESVTEQDSKDSTYSLSSTLTLSKADYEKHKVYACEVTHQGLSSPVTKSFNRGEC
notes: Trispecific F3' format: CLEC12A scFv-Fc paired with NKG2D Fab-Fc; Stressed and control samples of the stability studies are the same molecule; also called AB0237
With B1, in [1], binding was characterised by a dissociation constant (Kd) of 0.98 nM, the off-rate (koff) worked out at 0.000735 s⁻¹ and the kon was 750000 M⁻¹ s⁻¹. In assay [2], this molecule came in with a Kd of 201 nM, an off-rate constant (koff) of 0.0165 s⁻¹ and a kon of 82400 M⁻¹ s⁻¹. Further, in [3], the “EC50 (nM), lysis of CLEC12A+ PL21 cells by KHYG-1-CD16a cells; HST formulation, 40 C, 4 wks” value was determined as 1.21 nM and the “EC50 (nM), lysis of CLEC12A+ PL21 cells by KHYG-1-CD16a cells; control sample” value is 0.17 nM.

B2: AB0192 TriNKET (other)
chain: EVQLVESGGGVVQPGGSLRLSCAASGFTFNAFGMHWVRQAPGKCLEWVAFISSGSTSIYYANTVKGRFTISRDNSKNTLYLQMNSLRAEDTAVYYCARDGYPTGGAMDYWGQGTSVTVSSGGGGSGGGGSGGGGSGGGGSDIQMTQSPSSLSASVGDRVTITCKASQDIYNYLSWFQQKPGKAPKPLIYRANILVSGVPSRFSGSGSGQDYTFTISSLQPEDIATYYCLQFDAFPFTFGCGTKLEIKGSDKTHTCPPCPAPELLGGPSVFLFPPKPKDTLMISRTPEVTCVVVDVSHEDPEVKFNWYVDGVEVHNAKTKPREEQYNSTYRVVSVLTVLHQDWLNGKEYKCKVSNKALPAPIEKTISKAKGQPREPRVYTLPPCRDELTKNQVSLTCLVKGFYPSDIAVEWESNGQPENNYKTTPPVLVSDGSFTLYSKLTVDKSRWQQGNVFSCSVMHEALHNHYTQKSLSLSPG
heavy: B1 heavy
light: B1 light
notes: the condition stands under assay; also called AB0192 Lot AB0192-005
In assay [4], B2 showed a Kd of 1.81 nM, a koff of 0.0014 s⁻¹ and an on-rate constant (kon) of 776000 M⁻¹ s⁻¹. Moreover, in assay [5], the equilibrium dissociation constant (Kd) is 2.2 nM and 1.5 nM and 1.9 nM and 2.1 nM; the koff is 0.00012 s⁻¹ and 0.00011 s⁻¹; the kon is 54000 M⁻¹ s⁻¹ and 80000 M⁻¹ s⁻¹ and 57000 M⁻¹ s⁻¹ and 55000 M⁻¹ s⁻¹. For the same molecule, in assay [6], the Kd was found to be 178 nM, the off-rate (koff) is 0.0199 s⁻¹ and the on-rate (kon) is 112000 M⁻¹ s⁻¹. The percent surface retention in assay [7] stood at 103%.

B3: AB0089 TriNKET (bispecific antibody, human IgG1, kappa)
chain: B1 chain with S53V, K56A, K71V, Y98G, D101G, S103T, R207D, I220F
heavy: B1 heavy
light: B1 light
notes: F3' format heterodimer of three chains; human IgG1 Fc with EW-RVT and Y349C/S354C mutations; also called AB0089 Lot AB0089-002; CLEC12A TriNKET AB0089
In the case of B3, the on-rate (kon) in [8] and in assay [12] was 1.01e+07 M⁻¹ s⁻¹ each time. In addition, the Kd in [9] was 0.9 nM; in assay [11], 0.69 nM and 0.75 nM and 0.78 nM. Moreover, a half-maximal response in [10] (EC50) required 4.02 nM. Also, the off-rate constant (koff) in [13] was 0.0373 s⁻¹.

B4: F3'-1602 TriNKET (other)
chain: B1 chain
heavy: B1 heavy
light: B1 light
notes: CLEC12A scFv-Fc, NKG2D A49MI Fab-Fc, human IgG1 Fc; also called AB0237
Consider B4, for which, in [14], the dissociation constant Kd came to 0.59 nM, the dissociation rate constant (koff) was found to be 0.000494 s⁻¹ and the kon was 844000 M⁻¹ s⁻¹. Moreover, the “fold lower EC50 than AB0010” value in assay [15] was around 2 fold. In addition, in assay [16], the EC50 was determined as 1.6 nM and the “Max binding MFI” value came out at 924 MFI. For the same molecule, the EC50 in [17] is 1.2 nM.
